Laboratory results as given in paper PMC8557155 (Annals of Nuclear Medicine, 2021).
“Also recorded” adds a separate entry of the source.

Assay: Safety and tolerability (TEAEs, NCI CTCAE v4.0, DLT)
Assay type: in vivo, human (Japanese patients)
Experimental: Safety was evaluated based on adverse events, laboratory tests, vital signs, physical examination, arterial oxygen saturation (SpO2), 12-lead electrocardiogram (ECG), body weight, and Eastern Cooperative Oncology Group (ECOG) performance status. Toxicity was evaluated according to the NCI CTCAE criteria version 4.0 14). Blood count and liver and kidney biochemistry examinations were performed just prior to the treatment and 5 days, 2, 4, 6, and 8 weeks after the first administration (Course 1). In addition, the examinations were performed the second, third, fourth administration (Courses 2, 3, 4), and as per routine clinical follow-up thereafter.
Course 2 treatment and subsequent courses were initiated for subjects who completed the dose-limiting toxicity (DLT) observation period (up to Day 56 of Course 1) without experiencing DLT and who met the eligibility criteria. […] The study treatment was considered tolerable when the number of subjects who experienced DLT was zero or one per six subjects. The appropriateness of DLT, as assessed by the investigator or sub-investigator, was confirmed by the clinical trial medical expert. All adverse events and serious adverse events, reported spontaneously or non-spontaneously, were collected during the study.

[1] = TEAE by severity, n = 6, CTCAE v4.0, 4 × 7.4 GBq + amino acid solution + octreotide LAR

## C[C@@H](O)[C@H](NC(=O)[C@@H]1CSSC[C@H](NC(=O)[C@@H](Cc2ccccc2)NC(=O)CN2CCN(CC(=O)O)CCN(CC(=O)O)CCN(CC(=O)O)CC2)C(=O)N[C@@H](Cc2ccc(O)cc2)C(=O)N[C@H](Cc2c[nH]c3ccccc23)C(=O)N[C@@H](CCCCN)C(=O)N[C@@H]([C@@H](C)O)C(=O)N1)C(=O)O [177Lu-DOTATATE, ^177Lu-DOTA^0-Tyr^3-octreotate, metal not drawn]
DLT observation period up to Day 56 of Course 1, n = 6
  Dose-limiting toxicities (DLT): no dose-limiting toxicities; also recorded: no DLT
[1]
  ALT increased, Grade 1: 1 (16.7) n (%)
  ALT increased, Grade 2: 0 n (%)
  ALT increased, Grade 3: 0 n (%)
  ALT increased, Grade 4: 0 n (%)
  AST increased, Grade 1: 1 (16.7) n (%)
  AST increased, Grade 2: 0 n (%)
  AST increased, Grade 3: 0 n (%)
  AST increased, Grade 4: 0 n (%)
  Abdominal distension, Grade 1: 3 (50.0) n (%)
  Abdominal distension, Grade 2: 0 n (%)
  Abdominal distension, Grade 3: 0 n (%)
  Abdominal distension, Grade 4: 0 n (%)
  Abdominal pain, Grade 1: 1 (16.7) n (%)
  Abdominal pain, Grade 2: 0 n (%)
  Abdominal pain, Grade 3: 0 n (%)
  Abdominal pain, Grade 4: 0 n (%)
  All treatment emergent adverse events (TEAEs), Grade 1: 0 n (%)
  All treatment emergent adverse events (TEAEs), Grade 2: 4 (66.7) n (%)
  All treatment emergent adverse events (TEAEs), Grade 3: 2 (33.3) n (%)
  All treatment emergent adverse events (TEAEs), Grade 4: 0 n (%)
  Alopecia, Grade 1: 3 (50.0) n (%)
  Alopecia, Grade 2: 0 n (%)
  Alopecia, Grade 3: 0 n (%)
  Alopecia, Grade 4: 0 n (%)
  Blood and lymphatic system disorders (SOC), Grade 1: 0 n (%)
  Blood and lymphatic system disorders (SOC), Grade 2: 1 (16.7) n (%)
  Blood and lymphatic system disorders (SOC), Grade 3: 2 (33.3) n (%)
  Blood and lymphatic system disorders (SOC), Grade 4: 0 n (%)
  CPK increased, Grade 1: 0 n (%)
  CPK increased, Grade 2: 1 (16.7) n (%)
  CPK increased, Grade 3: 0 n (%)
  CPK increased, Grade 4: 0 n (%)
  Chest discomfort, Grade 1: 1 (16.7) n (%)
  Chest discomfort, Grade 2: 0 n (%)
  Chest discomfort, Grade 3: 0 n (%)
  Chest discomfort, Grade 4: 0 n (%)
  Chest pain, Grade 1: 1 (16.7) n (%)
  Chest pain, Grade 2: 0 n (%)
  Chest pain, Grade 3: 0 n (%)
  Chest pain, Grade 4: 0 n (%)
  Cholesterol increased, Grade 1: 0 n (%)
  Cholesterol increased, Grade 2: 1 (16.7) n (%)
  Cholesterol increased, Grade 3: 0 n (%)
  Cholesterol increased, Grade 4: 0 n (%)
  Constipation, Grade 1: 2 (33.3) n (%)
  Constipation, Grade 2: 0 n (%)
  Constipation, Grade 3: 0 n (%)
  Constipation, Grade 4: 0 n (%)
  Creatinine increased, Grade 1: 1 (16.7) n (%)
  Creatinine increased, Grade 2: 0 n (%)
  Creatinine increased, Grade 3: 0 n (%)
  Creatinine increased, Grade 4: 0 n (%)
  Decreased appetite, Grade 1: 3 (50.0) n (%)
  Decreased appetite, Grade 2: 1 (16.7) n (%)
  Decreased appetite, Grade 3: 0 n (%)
  Decreased appetite, Grade 4: 0 n (%)
  Diarrhea, Grade 1: 3 (50.0) n (%)
  Diarrhea, Grade 2: 2 (33.3) n (%)
  Diarrhea, Grade 3: 0 n (%)
  Diarrhea, Grade 4: 0 n (%)
  Dizziness, Grade 1: 1 (16.7) n (%)
  Dizziness, Grade 2: 0 n (%)
  Dizziness, Grade 3: 0 n (%)
  Dizziness, Grade 4: 0 n (%)
  Dysgeusia, Grade 1: 0 n (%)
  Dysgeusia, Grade 2: 1 (16.7) n (%)
  Dysgeusia, Grade 3: 0 n (%)
  Dysgeusia, Grade 4: 0 n (%)
  Dyshidrotic eczema, Grade 1: 0 n (%)
  Dyshidrotic eczema, Grade 2: 1 (16.7) n (%)
  Dyshidrotic eczema, Grade 3: 0 n (%)
  Dyshidrotic eczema, Grade 4: 0 n (%)
  Gastrointestinal disorders (SOC), Grade 1: 4 (66.7) n (%)
  Gastrointestinal disorders (SOC), Grade 2: 2 (33.3) n (%)
  Gastrointestinal disorders (SOC), Grade 3: 0 n (%)
  Gastrointestinal disorders (SOC), Grade 4: 0 n (%)
  General disorders and administration site conditions (SOC), Grade 1: 5 (83.3) n (%)
  General disorders and administration site conditions (SOC), Grade 2: 0 n (%)
  General disorders and administration site conditions (SOC), Grade 3: 0 n (%)
  General disorders and administration site conditions (SOC), Grade 4: 0 n (%)
  Gingivitis, Grade 1: 1 (16.7) n (%)
  Gingivitis, Grade 2: 0 n (%)
  Gingivitis, Grade 3: 0 n (%)
  Gingivitis, Grade 4: 0 n (%)
  Headache, Grade 1: 1 (16.7) n (%)
  Headache, Grade 2: 0 n (%)
  Headache, Grade 3: 0 n (%)
  Headache, Grade 4: 0 n (%)
  Hyperuricemia, Grade 1: 1 (16.7) n (%)
  Hyperuricemia, Grade 2: 0 n (%)
  Hyperuricemia, Grade 3: 0 n (%)
  Hyperuricemia, Grade 4: 0 n (%)
  Hypocalcemia, Grade 1: 0 n (%)
  Hypocalcemia, Grade 2: 1 (16.7) n (%)
  Hypocalcemia, Grade 3: 0 n (%)
  Hypocalcemia, Grade 4: 0 n (%)
  Immune system disorders (SOC), Grade 1: 1 (16.7) n (%)
  Immune system disorders (SOC), Grade 2: 0 n (%)
  Immune system disorders (SOC), Grade 3: 0 n (%)
  Immune system disorders (SOC), Grade 4: 0 n (%)
  Infections and infestations (SOC), Grade 1: 2 (33.3) n (%)
  Infections and infestations (SOC), Grade 2: 1 (16.7) n (%)
  Infections and infestations (SOC), Grade 3: 0 n (%)
  Infections and infestations (SOC), Grade 4: 0 n (%)
  Investigations (SOC), Grade 1: 1 (16.7) n (%)
  Investigations (SOC), Grade 2: 4 (66.7) n (%)
  Investigations (SOC), Grade 3: 0 n (%)
  Investigations (SOC), Grade 4: 0 n (%)
  Leukopenia, Grade 1: 0 n (%)
  Leukopenia, Grade 2: 2 (33.3) n (%)
  Leukopenia, Grade 3: 0 n (%)
  Leukopenia, Grade 4: 0 n (%)
  Lymphopenia, Grade 1: 0 n (%)
  Lymphopenia, Grade 2: 1 (16.7) n (%)
  Lymphopenia, Grade 3: 2 (33.3) n (%)
  Lymphopenia, Grade 4: 0 n (%)
  Malaise, Grade 1: 4 (66.7) n (%)
  Malaise, Grade 2: 0 n (%)
  Malaise, Grade 3: 0 n (%)
  Malaise, Grade 4: 0 n (%)
  Metabolism and nutrition disorders (SOC), Grade 1: 3 (50.0) n (%)
  Metabolism and nutrition disorders (SOC), Grade 2: 2 (33.3) n (%)
  Metabolism and nutrition disorders (SOC), Grade 3: 0 n (%)
  Metabolism and nutrition disorders (SOC), Grade 4: 0 n (%)
  Musculoskeletal and connective tissue disorders (SOC), Grade 1: 1 (16.7) n (%)
  Musculoskeletal and connective tissue disorders (SOC), Grade 2: 0 n (%)
  Musculoskeletal and connective tissue disorders (SOC), Grade 3: 0 n (%)
  Musculoskeletal and connective tissue disorders (SOC), Grade 4: 0 n (%)
  Musculoskeletal pain, Grade 1: 1 (16.7) n (%)
  Musculoskeletal pain, Grade 2: 0 n (%)
  Musculoskeletal pain, Grade 3: 0 n (%)
  Musculoskeletal pain, Grade 4: 0 n (%)
  Nasopharyngitis, Grade 1: 2 (33.3) n (%)
  Nasopharyngitis, Grade 2: 0 n (%)
  Nasopharyngitis, Grade 3: 0 n (%)
  Nasopharyngitis, Grade 4: 0 n (%)
  Nausea, Grade 1: 3 (50.0) n (%)
  Nausea, Grade 2: 0 n (%)
  Nausea, Grade 3: 0 n (%)
  Nausea, Grade 4: 0 n (%)
  Nervous system disorders (SOC), Grade 1: 3 (50.0) n (%)
  Nervous system disorders (SOC), Grade 2: 1 (16.7) n (%)
  Nervous system disorders (SOC), Grade 3: 0 n (%)
  Nervous system disorders (SOC), Grade 4: 0 n (%)
TEAE, n = 6
  Decreased appetite, frequency (all grades): 66.7%
  Diarrhea, frequency (all grades): 83.3%
  Leukopenia, frequency (all grades): 33.3%
  Lymphopenia, frequency (all grades): 50%
  Malaise, frequency (all grades): 66.7%
  Nausea, frequency (all grades): 50%
  Thrombocytopenia, frequency (all grades): 33.3%
After each treatment, n = 6
  Lymphocyte, erythrocyte, and leukocyte counts: gradually decreased
In vivo
  Abdominal distension, frequency (all grades): 50%
  Alopecia, frequency (all grades): 50%
  Blood creatinine level increased, frequency: 16.7%
  Severe infections: no severe infections
  Severe lymphopenia during the follow-up period, frequency: 16.7%
N = 6
  Secondary hematological malignant diseases: no secondary hematological malignant diseases
  Severe (grade ≥ 3) adverse events associated with non-hematological toxicities: no severe (grade ≥ 3) adverse events
